Measurements: the DeepSol protein solubility set

assay: soluble on expression in E. coli; label from the status in PepcDB or PDB records

Soluble on expression in E. coli, soluble:
MSKTDVKKSREASGILTLQVNLRERRNFLNLMQNKLFSWKIRFSAIKGKCSQKSKYFRRSRSEDCYVEADLKILSRTRRSRKLPGTVPDFLGKQLIGISSSVVSRVSRSCR, MSLSETLLEKNWKFSKGDFPEAAQTDYNDTKWESVVIPHDWAIFGPFDMNNDLQNVAVTQNFEKKASLKTGRTGGLPYVGTGWYRTSFDVPADKEVTLLFDGAMSEARVYVNGQEACFWPFGYNSFHCNVTPFLNKDGKNNTLAVRLENRPQSSRWYPGAGLYRNVHLIVTEKVHIPVWGTQITTPHVSDEFAAVRLQTKIENAGEKTEIRIETEILSPDGKVVTRKENKGRINHGQPFEQNFIVNAPQLWSPESPALYKAVSKVYADNQLVDTYSTRFGIRSIEYIADKGFYLNGKHRKFQGVCNHHDLGPLGAAINVAALRHQLTLLKDMGCDAIRTSHNMPAPELVELCDEMGFMMMIEPFDEWDIAKCENGYHRYFNEWAERDMVNMLHNYRNNPCVVMWSIGNEVPTQCSPVGYKVAKFLQDICHREDPTRPVTCGMDQVTCVLANGFAAMIDIPGLNYRANRYQEAYDKLPQNLILGSETASTVSSRGVYKFPVKDKKSAQYDDHQCSSYDVEACSWSNIPDEDFALADDHHWTIGQFVWTGFDYLGEPSPYDTDAWPNHSSMFGIIDLASLPKDRYYLYRSIWNKEAETLHILPHWTWPGREGEVTPVFVYTNYPAAELFINGKSYGKQSKNNSSLKSRYRLMWMDAIYEPGEVKVVAYDKDGKAVAEKSVRTASKPHHIELVSNRNELTADGKDLAYVTVKVVDKDGNLCPADSRLINFSVKGAGKYRAGANGDPTSLDLFHLPKMHAFNGMLTAIVQTNETAGEIILTAKAGGVKAGSIRLLTKEGHHHHHH, PPESDGFSDVRKVGYLRKPKSMHKRFFVLRAASEAGGPARLEYYENEKKWRHKSSAPKRSIPLESCFNINKRADSKNKHLVALYTRDEHFAIAADSEAEQDSWYQALLQLHNRAKGHHDGAAALGAGGGGGSCSGSSGLGEAGEDLSYGDVPPGPAFKEVWQVILKPKGLGQTKNLIGIYRLCLTSKTISFVKLNSEAAAVVLQLMNIRRCGHSENFFFIEVGRSAVTGPGEFWMQVDDSVVAQNMHETILEAMRAMSDEFRPR, NSLFNQEVQIPLTESYCGPCPKNWICYKNNCYQFFDESKNWYESQASCMSQNASLLKVYSKEDQDLLKLVKSYHWMGLVHIPTNGSWQWEDGSILSPNLLTIIEMQKGDCALYASSFKGYIENCSTPNTYICMQRTV, MLTVDLSGKKALVMGVTNQRSLGFAIAAKLKEAGAEVALSYQAERLRPEAEKLAEALGGALLFRADVTQDEELDALFAGVKEAFGGLDYLVHAIAFAPREAMEGRYIDTRRQDWLLALEVSAYSLVAVARRAEPLLREGGGIVTLTYYASEKVVPKYNVMAIAKAALEASVRYLAYELGPKGVRVNAISAGPVRTVAARSIPGFTKMYDRVAQTAPLRRNITQEEVGNLGLFLLSPLASGITGEVVYVDAGYHIMGMELEG, MNKIAIQKPNIPENLQTADFHDAVTQDDVISMHLFEDCTICGEDIERLCVEKTVFRNVVFIDVSFRHIELTDVIFEKCDLSNADFSGAVIHRTSVKQSKMVGMNVAEATLRNVSFEECHGHFSSFSYSNMKQVRFDHCALMQSECSDTVLQQTHFDGCELEGASFTGTSLQNMDISTCRFEQLHVSLDKLKGCKIAPEHAIAFARALGAVIVLEHHHHHH, MGSSHHHHHHSSGLVPRGSGDPDEQYDFLFKLVLVGDASVGKTCVVQRFKTGAFSERQGSTIGVDFTMKTLEIQGKRVKLQIWDTAGQERFRTITQSYYRSANGAILAYDITKRSSFLSVPHWIEDVRKYAGSNIVQLLIGNKSDLSELREVSLAEAQSLAEHYDILCAIETSAKDSSNVEEAFLRVATELIMRHGGPLFS, EAGAPCGRISFALRYLYGSDQLVVRILQALDLPAKDSNGFSDPYVKIYLLPDRKKKFQTKVHRKTLNPIFNETFQFSVPLAELAQRKLHFSVYDFDRFSRHDLIGQVVLDNLLELAEQPPDRPLWRDILEGGSEKADLGELNFSLCYLPTAGLLTVTIIKASNLKAMDLTGFSDPYVKASLISEGRRLKKRKTSIKKNTLNPTYNEALVFDVAPESVENVGLSIAVVDYDCIGHNEVIGVCRVGPEAADPHGREHWAEMLANPRKPVEHWHQLVEEKTLSSFTKGGKGLSEKENSE

Soluble on expression in E. coli, not soluble:
MAATVRNLPALFRGLHSKEVCQKMSFSVSAAAKSEILVDTHGSKKVVTLNRPKALNALNLEMVREFYPKLQAWNSSSDVDLVILKGSGDKAFCAGGDVLAVVRSFKDSESGKECTMHKDFFREEYILNHLIGTLNKQYVCLIDGIVMGGGCGLSVNGRFRVATEKTMLAMPETALGLFPDVGGSYFLSRLKGNLGMYLALTGYRLLGADAFHAGLATHFVESSELAKLEKELVNIKDVTENSVDEVIRSFEPKKIPEFSLSKNLAQIRDSFKAKSVEEILASLEKDGSDWAKKQAATLGKMSPTSLKVTHRQITEGSKMSYAKIFTMEYRLTQRFLADKDFHEGCRAILVDKDRKPKWNPATLADVKDSVVDNYFSPLPNNSDLKL, MRIAILGGGVAGSTLAYLLSRINYEVTIFDINQHYVKPCGDIVPNIYTPPFNWKETFGIRRFSFYIDGEKIYDVEYRHTKWLVIDKWKWINDMRKSSKVIVTHDNNAKEFDYVIDSRGPYPMDREVVYTTRAIIETEEFDDEAILEFNTRYTGFYWIFPSKENEYNIGAGFLEYKNSKELLNYYLRKRFKNFEVKDIRGAPISIGSVKNKKLRIGEARGLVFPLSGEGIRPSAISAEYAFEAIHKEKDLDGFLNEKLSIIEKRIKIQKMLLDLYRYSSLNLRKTFMRIFFKNEVLIDTYLEDKMDLNGIIESLKSVRANGGIIRKFEEQERLEHHHHHH, MSLEQNPVDLDSLTLVNEDELETSVALDNMARRARNGCNEQLKVLCHRIEYLFESKREVNEHNNPLEPRQLVACFSEGLEKLSLDIKARLIILKLFEREVMAETGYLVSEANKVLIDAGVLPEMKSAPIAPAHKPGSRSLANQGNDNVMPTAGNAGVHSNDQVFGLLQELLVTMRGMQARPGDGASDVASEAPMAVMQNGVPYMNGAPLANAASVHQVNSDDLLGVLNRLQRVERSLGEDEGEERADLKTDLSELLDNEHGEAIHALDQADDDVINLVALLFDFILDDEGLPSDIKALLGRLQIPLLKVAIMDKAFFNNDNHEARLLLNMLARAGSQWDPHLGIQDDLYQRINHAVHRIIDDYEDDASLFSSLLQEFQQFFDSQKTRSDRVEQRVREAEEGKARAEQARREVVTVLDNRMAGRQLPDVVVRLLRQGWQQALYLTWLHEGENSPLWQQQVKVVDAVVWSVLEHRDQDALEKLKTLSPKLLKTLHEGLTKINHDAMETKQLLVKFRDVHHRLLKGLQTERVAVEPELPAQRAQPETAPELPENHFLVKKCSQLAPGQWIEIQDNDEPRRAKLAANIRAGVKIVFTNRRGIKVQEYSAYTLAVALHNGAVKLIDEGALFDRALEAVIGDLRRMQGNEGHHHHHH, MSIVAKSYEESADPVVAYCAEHTAVQTPLQAELQKETLTNAPHSGMLGAPEVLTFGENFIKFLGAKRVLDVGTFTGASALAWALAVPDDGEVFTFDIDHANYRKFGVPILSKCEKTFKKIKPVEGPGVESLDKLIADGQSGTFDFAFIDADKANYSNYYEKCVSLLRKGGVIFVDNSLWDGAVCDPAKRTDPRTAAIHEMNDKIYQDDRTYSALLNLGDGIHMAFKK, MGSDKIHHHHHHMTVCVAVKVQDCIVFAADSTTSLQAVGANGEHVTMNTYDHANKLFNLRKGCPVAAMTAGIGNFGGSSISTVSKDFRSLIDRRAEGYALNWENYTIEEIVGLARKYFFEERFSSLSEKPQGSFQYWVGGYSSGEQMGEVWQFQIHNGECLEPQCSISRNVASGLAWGGAPEAINRLILGYGQRIGDALVEGGLDASLVPQAIDGIARYTQCSLVHAAMPTGDAIDLAKFLAETTKQFVRFMPGSNSVGGDLDIATITKHENFKWIARKHFYNTRINPLETNHA, MGSDKIHHHHHHMSYITTKNQYITVSNNKIAYRELSKGKSDIPLVMLVHLAATLDNWDPKLLDLLAEQHHVIVLDLPGVGASQGKVAPTIPGMAEQAVSIIKALGYEKINLLGLSMGGFIAQEIVRLDSQLVNRLILAGTGPRGGFEVDKVTGKTFRYMLKAGLERVDPKRYIFYNHDEAGRLEAEKVLGRMGQRSAAHADKDMNVPGFLTQLKAIKRWGREPQDDMTFITQPTLIVNGDKDMQVPTENSYTMHEKIKNSQLIIYPNAGHGSIFQNVEDFSKALLAFLEETNA, MGSDKIHHHHHHMKRTPLFEKHVELGAKMVDFAGWEMPLYYTSIFEEVMAVRKSVGMFDVSHMGEFLVKGPEAVSFIDFLITNDFSSLPDGKAIYSVMCNENGGIIDDLVVYKVSPDEALMVVNAANIEKDFNWIKSHSKNFDVEVSNISDTTALIAFQGPKAQETLQELVEDGLEEIAYYSFRKSIVAGVETLVSRTGYTGEDGFELMLEAKNAPKVWDALMNLLRKIDGRPAGLGARDVCRLEATYLLYGQDMDENTNPFEVGLSWVVKLNKDFVGKEALLKAKEKVERKLVALELSGKRIARKGYEVLKNGERVGEITSGNFSPTLGKSIALALVSKSVKIGDQLGVVFPGGKLVEALVVKKPFYRGSVRREV, MGSDKIHHHHHHMYVGTQVAARDDEDFKVWAQLGVKNISADPPGKPASWVLDDFERLRDKVESFGLVLDMVQLPLPSRPIEQASYPDILLAGPERDRQIDAVCTMIENIAKAGIPAAKYNLNLIGIPRTEMELGRGGSLNEAWRWDKADHNADPGLAGVLSEDENWERIDYFLERVVPVAASNKVRLACHPHDPYTPPGYKGVTRVLGTIEGLKKFVQMRENPYHGLNFCQGSIGEMLDNPREEIDDIIRWFGSRDKIFNVHFRNISGGKLSFMETFPDEGDMDMVRSLKLYHELGYRYMIMPDHVPTIAGRDPVGVAFGFCYGYIAALIEALDNKHL, MNIELRHLRYFVAVAEELHFGRAAARLNISQPPLSQQIQALEQQIGARLLARTNRSVLLTAAGKQFLADSRQILSMVDDAAARAERLHQGEAGELRIGFTSSAPFIRAVSDTLSLFRRDYPDVHLQTREMNTREQIAPLIEGTLDMGLLRNTALPESLEHAVIVHEPLMAMIPHDHPLANNPNVTLAELAKEPFVFFDPHVGTGLYDDILGLMRRYHLTPVITQEVGEAMTIIGLVSAGLGVSILPASFKRVQLNEMRWVPIAEEDAVSEMWLVWPKHHEQSPAARNFRIHLLNALR, MGSDKIHHHHHHMRRTALHSSTVGIRMRRALLRGLALSLTLGGAALGQSVGDSIFPSLGQRGLDVQHYDLHLTVPRPGEPHLSGDVTLTVGAREPLSRIVLDLLGPRVSAAQWNGQRVRWVQTAQKVEVTLPRPLRPGETGRLRLIYAGTPELSGDPGLPIRPGWQNEAGLSYSLSEPHGTRGFLPCNDHPSDPATFTVRVTVPASASAAASGLFTTQTERNGLKTLTFTQRVPVPTYALGLIVGPLERRTAPDVQLGTQTVHRRDIYAAGLPAGTTVPEGETARMLRVLSDWFGPYPDEVYGVALLPVRQLALETAGLTTMPATSNRERVRLHELAHQWFGDQVTLADWADTWLSEGFATYAELLWAESQGEDGQAMAADWYARLSVLPSRPLRATREEEIFDASAYFRGALALHALRLKVGDAAFGQFLHSYVKTFTGRPVSTTALLTLVKTQLGAEAEQTLRVWVEGRTLPPLPEPVGAPV
